Columns and labels:
Human FXI activated = Human FXI activated (human, UniProt P03951 19-387; P03951 388-625); experiment: cell-based or functional assay
Human FXI zymogen = Human FXI zymogen (human, UniProt P03951 19-625); experiment: cell-based or functional assay
Chain of Human FXI zymogen (P03951 19-625 C226S limits assumed): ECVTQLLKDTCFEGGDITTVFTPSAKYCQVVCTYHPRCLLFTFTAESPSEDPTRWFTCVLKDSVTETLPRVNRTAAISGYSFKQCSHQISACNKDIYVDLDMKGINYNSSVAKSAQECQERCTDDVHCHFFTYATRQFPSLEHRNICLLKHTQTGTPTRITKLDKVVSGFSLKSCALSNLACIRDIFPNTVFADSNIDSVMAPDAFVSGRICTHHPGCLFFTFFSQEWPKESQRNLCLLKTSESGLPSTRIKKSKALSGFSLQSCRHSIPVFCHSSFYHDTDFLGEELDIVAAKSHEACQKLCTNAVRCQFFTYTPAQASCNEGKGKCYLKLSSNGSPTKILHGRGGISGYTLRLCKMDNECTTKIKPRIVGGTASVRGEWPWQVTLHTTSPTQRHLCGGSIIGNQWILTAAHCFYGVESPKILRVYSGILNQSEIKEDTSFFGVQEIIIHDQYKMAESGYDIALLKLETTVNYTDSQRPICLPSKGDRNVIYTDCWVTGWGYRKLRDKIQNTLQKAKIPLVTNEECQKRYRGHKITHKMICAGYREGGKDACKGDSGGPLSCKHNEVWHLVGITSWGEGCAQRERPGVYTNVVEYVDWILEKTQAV

Chain of Human FXI activated (P03951 19-387 C226S limits assumed, chain 1 of 2): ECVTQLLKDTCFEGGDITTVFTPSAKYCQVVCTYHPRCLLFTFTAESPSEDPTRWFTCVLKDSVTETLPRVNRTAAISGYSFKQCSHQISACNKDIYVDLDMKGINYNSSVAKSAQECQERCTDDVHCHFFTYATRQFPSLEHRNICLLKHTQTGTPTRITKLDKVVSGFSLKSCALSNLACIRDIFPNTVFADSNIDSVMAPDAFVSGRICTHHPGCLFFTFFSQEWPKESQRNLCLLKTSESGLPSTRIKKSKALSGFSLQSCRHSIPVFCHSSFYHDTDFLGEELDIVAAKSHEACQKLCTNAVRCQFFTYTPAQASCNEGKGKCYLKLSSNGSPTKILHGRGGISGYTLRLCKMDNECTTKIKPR
Chain of Human FXI activated (P03951 388-625 limits assumed, chain 2 of 2): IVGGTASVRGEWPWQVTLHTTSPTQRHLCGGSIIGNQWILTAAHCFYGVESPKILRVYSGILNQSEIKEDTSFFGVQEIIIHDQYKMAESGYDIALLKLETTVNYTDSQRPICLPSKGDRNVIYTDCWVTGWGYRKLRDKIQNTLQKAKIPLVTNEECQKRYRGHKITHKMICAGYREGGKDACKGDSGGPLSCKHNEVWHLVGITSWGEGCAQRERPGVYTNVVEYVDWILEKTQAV

IC50, inhibition of FXIa enzymatic activity (cleavage of the fluorescent peptide substrate BS-2494) (Human FXI activated): ~0.16 nM | IC50, inhibition of the enzymatic activity of full length human FXIa (cleavage of a fluorescently labelled peptide) (Human FXI activated): 0.16 nM | IC50, thrombin generation assay (TGA) in pooled human plasma (Human FXI zymogen): 24 nM
B1: NOV1401-IgG (antibody, V domains shown)
VH: QVQLLESGGGLVQPGGSLRLSCAASGFTFSTAAMSWVRQAPGKGLEWVSGISGSGSSTYYADSVKGRFTISRDNSKNTLYLQMNSLRAEDTAVYYCARELSYLYSGYYFDYWGQGTLVTVSS
VL: QSVLTQPPSASGTPGQRVTISCSGSSSNIGSNDVSWYQQLPGTAPKLLIYKNYNRPSGVPDRFSGSKSGTSASLAISGLQSEDEADYYCSAWDQRQFDVVFGGGTKLTVLG

From patent US20230002507A1 (Novartis, published 2023)
